Data reported in patent publication US20100093608A1 (Eli Lilly, published 2010).
Where two headings read alike, the source gives them in different places. Blank lines part the entries; values can stand above or below the molecule they belong to.

Legend:
[1] = target: T1, erythropoietin receptor on TF-1 cells (UniProt P19235 25-508, limits assumed)
T1 sequence (looked up): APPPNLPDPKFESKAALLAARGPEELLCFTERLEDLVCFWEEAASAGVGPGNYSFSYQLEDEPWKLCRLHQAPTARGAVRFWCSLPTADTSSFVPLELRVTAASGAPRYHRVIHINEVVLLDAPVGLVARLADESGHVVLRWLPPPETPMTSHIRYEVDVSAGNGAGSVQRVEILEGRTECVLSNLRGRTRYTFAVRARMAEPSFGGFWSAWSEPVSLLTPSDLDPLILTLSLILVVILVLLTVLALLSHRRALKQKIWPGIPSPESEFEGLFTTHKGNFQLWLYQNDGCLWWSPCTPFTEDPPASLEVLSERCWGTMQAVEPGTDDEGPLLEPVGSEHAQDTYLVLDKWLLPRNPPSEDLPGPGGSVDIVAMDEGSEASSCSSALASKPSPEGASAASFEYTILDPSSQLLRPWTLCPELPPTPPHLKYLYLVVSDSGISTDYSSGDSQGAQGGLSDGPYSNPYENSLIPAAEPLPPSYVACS

[2] = target: T1, erythropoietin receptor on TF-1 cells; remark: listed apart in the source
[3] = target: T1, erythropoietin receptor on TF-1 cells; remark: listed apart in the source
[4] = target: T1, erythropoietin receptor on TF-1 cells; test: cell-based or functional assay
[5] = target: T1, erythropoietin receptor on TF-1 cells; test: cell-based or functional assay; remark: listed apart in the source
[6] = target: T1, erythropoietin receptor on TF-1 cells; test: cell-based or functional assay; remark: listed apart in the source
[7] = target: T1, erythropoietin receptor on TF-1 cells; test: cell-based or functional assay; remark: listed apart in the source

Molecule: D55 (ligand)
- Relative activity compared to wt fEPO (TF-1 proliferation) [1]: 1.4 X

Molecule: E21 (ligand)
- Relative activity compared to wt fEPO (TF-1 proliferation) [1]: 3.1 X

Molecule: E31 (ligand)
- Relative activity compared to wt fEPO (TF-1 proliferation) [1]: 1.4 X

Molecule: K116 (ligand)
- Relative activity compared to wt fEPO (TF-1 proliferation) [1]: 0.7 X

Molecule: L130 (ligand)
- Relative activity compared to wt fEPO (TF-1 proliferation) [1]: 2.6 X

Molecule: P129 (ligand)
- Relative activity compared to wt fEPO (TF-1 proliferation) [1]: 0.9 X

Molecule: R53 (ligand)
- Relative activity compared to wt fEPO (TF-1 proliferation) [1]: 1.6 X

Molecule: R131 (ligand)
- Relative activity compared to wt fEPO (TF-1 proliferation) [1]: 0.8 X

Molecule: R163 (ligand)
- Relative activity compared to wt fEPO (TF-1 proliferation) [1]: 1.1 X

B1: wild type feline erythropoietin (fEPO) (ligand)
chain: APPRLICDSRVLERYILEAREAENVTMGCAEGCSFSENITVPDTKVNFYTWKRMDVGQQAVEVWQGLALLSEAILRGQALLANSSQPSETLQLHVDKAVSSLRSLTSLLRALGAQKEATSLPEATSAAPLRTFTVDTLCKLFRIYSNFLRGKLTLYTGEACRRGDR
- EC50 (read off the curve) [4]: ~3 ng/mL
- EC50 (TF-1 proliferation; Starting [fEPO] 250ng/ml; Theoretical Activity 0.5x, Actual Activity 0.6x) [5]: 4.7 ng/mL
- EC50 (TF-1 proliferation; Starting [fEPO] 500ng/ml; Theoretical Activity 1x, Actual Activity 1x) [5]: 2.8 ng/mL
- EC50 (TF-1 proliferation; Starting [fEPO] 1000ng/ml; Theoretical Activity 2x, Actual Activity 2x) [5]: 1.4 ng/mL
- EC50 (read off the curve) [6]: ~2 ng/mL
- EC50 (TF-1 proliferation, 450nM) [7]: 3.2 ng/mL

Continued, values first:

- Relative activity compared to wt fEPO (TF-1 proliferation) [1]: 1.4 X
- fold more active than WT (TF-1 proliferation, EC 50 ng/ml) [2]: 1.4 x
Molecule: A128 (ligand)

- EC50 (read off the curve) [1]: 3 ng/mL
- Relative activity compared to wt fEPO (TF-1 proliferation) [1]: 1.2 X
Molecule: E37 (ligand)

- Relative activity compared to wt fEPO (TF-1 proliferation) [1]: 1.2 X
- EC50 (TF-1 proliferation, 450nm; stored 5 weeks at +4 degrees C) [3]: 2.1 ng/mL
- EC50 (TF-1 proliferation, 450nm; stored 5 weeks at -80 degrees C) [3]: 2.1 ng/mL
Molecule: E72 (ligand)

- Relative activity compared to wt fEPO (TF-1 proliferation) [1]: 2.2 X
Molecule: F133 (ligand)

- Relative activity compared to wt fEPO (TF-1 proliferation) [1]: 0.6 X
- fold less active than WT (TF-1 proliferation, EC 50 ng/ml) [2]: 1.6 x
Molecule: R76 (ligand)

- Relative activity compared to wt fEPO (TF-1 proliferation) [1]: 0.9 X
Molecule: S36 (ligand)

- Relative activity compared to wt fEPO (TF-1 proliferation) [1]: 1.6 X
Molecule: S120 (ligand)

- Relative activity compared to wt fEPO (TF-1 proliferation) [1]: 3.2 X
Molecule: T132 (ligand)

- Relative activity compared to wt fEPO (TF-1 proliferation) [1]: 2.6 X
Molecule: Y49 (ligand)
